The supplement of paper PMC10126150
± gives the standard deviation of the averaged measurements.

System: ATP
Test: switch fluorescence ratio, 500 uM ATP over buffer (Cy3 cluster intensity, sum of 5 cycles each) (fold (ratio)); higher = stronger signal-on switching upon ATP binding; sequences stand for … in TCGTCGGCAGCGTCAGATGTGTATAAGAGACAGTTTTTTTTTTTTTTTTTTTTTTTTT…TC
Conditions: aptamer strand: ATP DNA aptamer (quencher-CACCTGGGGGAGTATTGCGGAGGAAGG + anchor), 100 nM annealed; ATP concentration: 500 uM
Method in brief: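 After annealing to 100 nM quencher-labelled ATP aptamer, Cy3-labelled switching-strand clusters on a modified Illumina MiSeq flow-cell were imaged in selection buffer. A second image followed after 15 min with 500 uM ATP at 22 °C, and five such buffer/ATP cycles were done, each separated by NaOH stripping and re-annealing. The fluorescence ratio, averaged per switch-domain sequence, is summed target-cycle over summed buffer-cycle Cy3 intensity per cluster, with clusters outside 100-1000 RFU excluded.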
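Further: ATP exposure 15 min at 22 °C before imaging.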

Sequence	switch fluorescence ratio
TATGTGACTT	1.03 ± 0.0074
TATGTGAGTT	1.001 ± 0.0099
TATGTGGGGT	0.992 ± 0.026
TATGTTAGGA	1.0104 ± 0.00038
TATGTTATTT	1.02 ± 0.012
TATGTTCCAA	1.01 ± 0.03
TATGTTGGTG	0.987 ± 0.018
TATGTTGTAC	1.052 ± 0.0086
TATGTTGTAT	0.984 ± 0.053
TATGTTTCAA	1.017 ± 0.0089
TATGTTTCTA	1.0004 ± 0.00054
TATGTTTTTC	0.9687 ± 0.0014
TATTAAAAGA	0.99 ± 0.03
TATTAAAGGG	0.985 ± 0.017
TATTAAATTT	1.031 ± 0.0051
TATTAACTAG	1.02 ± 0.0022
TATTAAGAAA	0.962 ± 0.016
TATTAAGG	1.01 ± 0.011
TATTAAGGA	0.9762 ± 0.009
TATTAAGTAG	1.03 ± 0.038
TATTAATAA	1 ± 0.0029
TATTAATGTT	0.997 ± 0.019
TATTAATTAT	1.01 ± 0.022
TATTACAAT	1.03 ± 0.052
TATTACCTTA	1.03 ± 0.044

Sequence	switch fluorescence ratio
TATTACGAAA	1.1 ± 0.032
TATTACTCGT	1.01 ± 0.07
TATTACTTAG	1.062 ± 0.01
TATTACTTGC	1.03 ± 0.042
TATTAGGGAT	0.9951 ± 0.0058
TATTAGGGGG	0.984 ± 0.048
TATTAGGGTG	1.05 ± 0.098
TATTAGGTAT	0.961 ± 0.018
TATTAGGTCT	0.991 ± 0.045
TATTAGTGAT	0.9869 ± 0.0055
TATTATATGG	1.03 ± 0.027
TATTATCGTA	0.9927 ± 0.0081
TATTATGCGG	0.984 ± 0.017
TATTATTGCG	0.988 ± 0.011
TATTCGCCCA	1.11 ± 0.2
TATTCGGATT	0.984 ± 0.03
TATTCGGGGG	1.04 ± 0.078
TATTCGTGGG	0.956 ± 0.048
TATTCGTTCT	0.9985 ± 0.0022
TATTCTCATC	1.013 ± 0.0027
TATTCTGGTT	1.02 ± 0.05
TATTCTTTGA	1.02 ± 0.03
TATTGAATTC	1.01 ± 0.016
TATTGACTTT	1.28 ± 0.35
TATTGAGTTA	1.01 ± 0.033

Sequence	switch fluorescence ratio
TATTGCTCAC	1.04 ± 0.02
TATTGGAGTG	0.966 ± 0.084
TATTGGGGCG	0.982 ± 0.017
TATTGGGGTT	0.996 ± 0.04
TATTGGGTAT	1.03 ± 0.038
TATTGGTAGG	0.941 ± 0.019
TATTGGTCGT	0.968 ± 0.042
TATTGGTTCA	0.996 ± 0.018
TATTGGTTTG	1.04 ± 0.045
TATTGTGCTT	0.982 ± 0.035
TATTGTGTTT	0.9781 ± 0.0039
TATTGTTCGC	0.98 ± 0.046
TATTGTTTTT	1.01 ± 0.022
TATTTAAAAT	0.995 ± 0.046
TATTTAAACG	1 ± 0.011
TATTTAGTAG	1.006 ± 0.0072
TATTTAGTTG	1 ± 0.024
TATTTATAAA	0.998 ± 0.025
TATTTATTAG	0.991 ± 0.029
TATTTCAGTC	1.01 ± 0.02
TATTTCGAAT	1.11 ± 0.18
TATTTCGTTG	0.998 ± 0.059
TATTTGAATG	1.01 ± 0.028
TATTTGAGTT	0.96526 ± 0.00075
TATTTGATGT	0.991 ± 0.029

Sequence	switch fluorescence ratio
TATTTGGAAA	0.991 ± 0.036
TATTTGGACG	1.05 ± 0.068
TATTTGGAGT	1.012 ± 0.0022
TATTTGGGCA	1.01 ± 0.041
TATTTGGTGA	0.993 ± 0.025
TATTTGGTGG	1.02 ± 0.027
TATTTGGTT	0.991 ± 0.024
TATTTGTAAT	1.03 ± 0.02
TATTTGTAGG	1.05 ± 0.045
TATTTGTGTT	0.997 ± 0.016
TATTTGTTCT	1 ± 0.024
TATTTTAATT	0.991 ± 0.017
TATTTTACGT	1.01 ± 0.013
TATTTTCGTA	1 ± 0.021
TATTTTCTGT	0.997 ± 0.036
TATTTTGGAA	0.986 ± 0.044
TATTTTGGGG	0.988 ± 0.019
TATTTTGTTT	0.99 ± 0.014
TATTTTTAGG	1 ± 0.032
TCAAAAAAAT	1.02 ± 0.091
TCAAAATTTA	1.02 ± 0.048
TCAAACAGGG	1.04 ± 0.051
TCAAACATTT	1.016 ± 0.0076
TCAAACCGGT	0.983 ± 0.043
TCAAACTTTA	1.03 ± 0.025

Sequence	switch fluorescence ratio
TCAAAGACGG	1.02 ± 0.016
TCAAAGCAAA	1.41 ± 0.077
TCAAATCGGG	0.999 ± 0.014
TCAAATGGTA	1.006 ± 0.0037
TCAAATTCGG	1.01 ± 0.011
TCAACAACCA	1.06 ± 0.017
TCAACCGGGA	1.06 ± 0.09
TCAACGCCCC	1.28 ± 0.055
TCAACTATTA	0.977 ± 0.018
TCAAGATA	1.13 ± 0.21
TCAAGATTTT	0.975 ± 0.025
TCAAGGCACA	1.089 ± 0.01
TCAAGGCCGG	1.02 ± 0.035
TCAAGGGGCT	1 ± 0.013
TCAAGGGGGC	0.9915 ± 0.0018
TCAAGGGTTA	1.02 ± 0.011
TCAAGTGCAG	0.99 ± 0.027
TCAAGTTTTG	0.972 ± 0.015
TCAATAGAGG	1.05 ± 0.034
TCAATAGGTT	1.01 ± 0.024
TCAATGCGCC	1.46 ± 0.4
TCAATGGGAA	0.967 ± 0.026
TCAATGGTTG	0.988 ± 0.028
TCAATTTCAC	1.9 ± 1.3
TCAATTTTGT	0.997 ± 0.022

Sequence	switch fluorescence ratio
TCACAGTTGG	1.032 ± 0.0034
TCACATTATA	1.009 ± 0.0078
TCACCTTGGA	1.05 ± 0.096
TCACGGTGCT	1.15 ± 0.19
TCACGTAGGC	1.04 ± 0.053
TCACGTGGTT	1.03 ± 0.016
TCACTCTATC	1.0455 ± 0.00057
TCACTGGGTT	1.01 ± 0.068
TCACTGGTCT	0.9849 ± 0.0037
TCACTGGTTG	1.01 ± 0.011
TCACTTGGGT	0.996 ± 0.036
TCAGAAAGTG	1 ± 0.041
TCAGACAGCG	1.03 ± 0.053
TCAGACGTTC	1.07 ± 0.05
TCAGACGTTT	1.011 ± 0.009
TCAGACTGCG	0.999 ± 0.023
TCAGAGGATC	0.961 ± 0.017
TCAGAGGTAT	1.02 ± 0.014
TCAGATAGGG	0.968 ± 0.017
TCAGATGTCT	1.03 ± 0.055
TCAGCATGTC	1.27 ± 0.036
TCAGCGAATT	0.98 ± 0.015
TCAGCGTGTC	0.9648 ± 0.0079
TCAGCTGGGG	0.9799 ± 0.0058
TCAGGAATTT	1.68 ± 1.2

Sequence	switch fluorescence ratio
TCAGGAGTAA	1.82 ± 0.12
TCAGGATGGA	1 ± 0.018
TCAGGATTGA	0.98 ± 0.036
TCAGGCCCGT	1.01 ± 0.026
TCAGGGAGTA	1.04 ± 0.053
TCAGGGATGG	0.984 ± 0.042
TCAGGGGAGG	1.03 ± 0.036
TCAGGGGCAT	1.18 ± 0.3
TCAGGGGCCT	1.03 ± 0.044
TCAGGGGTT	1.15 ± 0.12
TCAGGGTGCT	1.1 ± 0.029
TCAGGGTTGC	1.03 ± 0.025
TCAGGTAATG	0.98 ± 0.033
TCAGGTAGTG	0.9875 ± 0.0078
TCAGGTATCG	1 ± 0.021
TCAGGTATGT	1.01 ± 0.038
TCAGGTTAGT	1.02 ± 0.022
TCAGTAAATT	0.965 ± 0.055
TCAGTAGGCA	1.01 ± 0.011
TCAGTCCTAT	1 ± 0.026
TCAGTCGGAT	0.9768 ± 0.0078
TCAGTGAGTG	1 ± 0.033
TCAGTGCTGT	1 ± 0.035
TCAGTGCTTA	1.01 ± 0.038
TCAGTGGATG	0.9794 ± 0.0032

Sequence	switch fluorescence ratio
TCAGTGGGGC	0.9987 ± 0.0093
TCAGTGGGGT	1.004 ± 0.0072
TCAGTTGTGC	1.01 ± 0.042
TCAGTTTACG	0.988 ± 0.019
TCAGTTTGTT	0.997 ± 0.023
TCAGTTTTCT	1.01 ± 0.057
TCATAAATTT	1.01 ± 0.018
TCATAACTGC	1.02 ± 0.029
TCATAATTAG	1 ± 0.0068
TCATAATTGA	0.99 ± 0.012
TCATACCGTA	1.09 ± 0.022
TCATACGGGG	1.01 ± 0.023
TCATAGATCG	1.01 ± 0.027
TCATAGTACG	1.02 ± 0.043
TCATAGTGTT	1.01 ± 0.04
TCATATTATG	1.02 ± 0.034
TCATATTATT	1 ± 0.033
TCATCAGCAG	2.96 ± 1.7
TCATCTAGGA	0.985 ± 0.011
TCATCTGCTG	1.17 ± 0.087
TCATGAGATT	1.02 ± 0.021
TCATGCAAAT	1.04 ± 0.031
TCATGGAATT	1 ± 0.031
TCATGGACTG	1.06 ± 0.02
TCATGGATCC	1.01 ± 0.035
